Test results as given in article PMC12098869, “An mRNA-display derived cyclic peptide scaffold reveals the substrate binding interactions of an N-terminal cysteine oxidase” (Nature Communications, 2025).
Values joined by “and” are separate entries in the source; they are usually repeats but may differ in a detail not shown here. Identical values can stand only once. Where a SMILES comes first, the peptide text is derived from it. Bridges are numbered along the chain shown (N, C = ends). Where no end group is shown, it is not given here. Side-chain parts run from the residue outwards. [ ]: non-standard residue; d: D form. Orn = NCCC[C@H](N)C(=O)O; Dap = NC[C@H](N)C(=O)O

Key:
[1] = target: T1, human ADO (Homo sapiens, UniProt Q96SZ5); experiment: SPR single-cycle kinetic (SCK) binding of cyclic peptides to ADO; conditions: for KD: Supplementary Fig. 4 series
T1 construct: Full-length human ADO (Uniprot ID: Q96SZ5) was cloned; made in house; host or cells: E. coli Rosetta2(DE3)
T1 sequence (Q96SZ5 1-270): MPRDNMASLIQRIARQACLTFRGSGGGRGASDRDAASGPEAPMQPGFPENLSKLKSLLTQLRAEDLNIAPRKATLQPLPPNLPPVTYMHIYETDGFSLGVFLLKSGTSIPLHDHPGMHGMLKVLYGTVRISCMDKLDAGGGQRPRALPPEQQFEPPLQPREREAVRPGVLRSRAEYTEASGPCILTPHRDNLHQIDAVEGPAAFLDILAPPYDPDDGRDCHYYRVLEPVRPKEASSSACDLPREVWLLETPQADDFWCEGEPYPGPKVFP
Text: After six cycles, clear enrichment of several CPs was observed by next-generation sequencing. The most enriched CPs (CP1-8, numbered according to their percentage enrichment in the final selection round) were selected for subsequent analysis (Table 1). CP1, 5, 6 and 7 are related in sequence, while CP2, 3, 4, and 8 are unique compositions (Fig. 1b). These CPs were subsequently produced by solid-phase peptide synthesis (SPPS) and analysed by surface plasmon resonance (SPR) using single cycle kinetic (SCK) analysis to confirm and quantify binding to ADO. ADO could interact with each CP to varying degrees (Supplementary Fig. 4, Table 1, Fig. 1dleft).
SPR measurements were made using a Biacore T200 (Cytiva) instrument and data were analysed using the Biacore Insight Evaluation Software. Biotinylated-ADO was immobilised on a Biotin CAP chip (Cytiva) with a target density of ∼2500–3000 RU and peptide/protein substrates were injected over the chip. Experiments were conducted at 4 °C using both multi-cycle (fit using the equilibrium steady state affinity 1:1 binding model) and single-cycle kinetics mode (fit using a 1:1 binding model). A buffer comprising 20 mM HEPES pH 7.5, 500 mM NaCl, 10 mM DTT, and 0.1% (v/v) tween-20 was used as the running buffer at a flow rate of 50 μL/minute.

[2] = target: T2, 2-aminoethanethiol dioxygenase (ADO), full-length human, N-terminally His-tagged and biotinylated … (human, UniProt Q96SZ5 1-270, biotin (biotinylated during expression, 0.2 mM biotin added)); experiment: cell-based or functional assay
T2 sequence (looked up): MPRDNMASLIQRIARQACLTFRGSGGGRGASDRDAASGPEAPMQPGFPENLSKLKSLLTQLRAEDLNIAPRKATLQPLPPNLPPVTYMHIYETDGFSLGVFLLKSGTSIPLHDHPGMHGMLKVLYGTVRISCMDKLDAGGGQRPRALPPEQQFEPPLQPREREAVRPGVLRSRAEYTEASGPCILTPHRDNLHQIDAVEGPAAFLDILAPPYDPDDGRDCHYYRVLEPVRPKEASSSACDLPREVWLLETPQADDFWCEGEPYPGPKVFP

[3] = target: T2, 2-aminoethanethiol dioxygenase (ADO), …; experiment: SPR; single cycle kinetic (SCK) analysis, 1:1 binding model; biotinylated ADO immobilised on a Biotin CAP chip (~2500-3000 RU), cyclic peptides injected; 4 °C; 20 mM HEPES pH 7.5, 500 mM NaCl, 10 mM DTT, 0.1% tween-20; 50 μL/minute; conditions: both partners purified
[4] = target: T3, 2-aminoethanethiol dioxygenase (ADO), full-length human, N-terminally His-tagged and biotinylated … (human, UniProt Q96SZ5 1-270, biotin (biotinylated during expression, 0.2 mM biotin added)); experiment: SPR; single-cycle kinetics (1:1 binding model); biotinylated ADO immobilised on a Biotin CAP chip (~2500-3000 RU), cyclic peptide injected; Biacore T200, 4 °C; 20 mM HEPES pH 7.5, 500 mM NaCl, 10 mM DTT, 0.1% tween-20; 50 µL/minute; each cell is one of three independent measurements; conditions: both partners purified
T3 construct: 2-aminoethanethiol dioxygenase (ADO), human, UniProt Q96SZ5, full length; Immobilised through its biotin on a Biotin CAP chip for SPR; also called wild type ADO; Biotinylated-ADO; source: E. coli Rosetta2(DE3), purified (Ni-NTA, SEC); not shown: biotinylation tag (from the vector pQE80L-Navi), N-terminal, kept
T3 sequence (looked up): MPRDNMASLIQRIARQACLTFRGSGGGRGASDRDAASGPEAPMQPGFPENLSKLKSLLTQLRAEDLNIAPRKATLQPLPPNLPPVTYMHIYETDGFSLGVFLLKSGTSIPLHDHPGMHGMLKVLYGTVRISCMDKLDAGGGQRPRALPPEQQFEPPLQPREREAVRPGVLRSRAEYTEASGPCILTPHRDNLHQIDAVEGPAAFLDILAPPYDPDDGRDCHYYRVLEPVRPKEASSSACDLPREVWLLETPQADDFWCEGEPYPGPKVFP
Procedure, shortened: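 A Biacore T200 with a Biotin CAP chip bearing about 2500–3000 RU of biotinylated human ADO, made in E. coli and purified, was used to test cyclic peptides at 4 °C and 50 µL/minute in HEPES pH 7.5 buffer with 500 mM NaCl, DTT and tween-20. Kd was derived from a 1:1 binding fit of single-cycle kinetic sensorgrams, measured three times independently.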

[5] = Fig. 3c series, geometric mean of a minimum of three independent measurements (n = 3)
[6] = 1:1 binding model, 4 °C, geometric mean of a minimum of three independent measurements (n = 3) with standard error

`CC[C@H](C)[C@@H]1NC(=O)[C@H](Cc2ccc(O)cc2)NC(=O)CSC[C@@H](C(N)=O)NC(=O)[C@H](CCC(N)=O)NC(=O)[C@H](CCCNC(=N)N)NC(=O)[C@H](Cc2c[nH]cn2)NC(=O)[C@H](CO)NC(=O)CNC(=O)[C@H](CCCCNC(=O)[C@@H](N)CO)NC(=O)[C@H](Cc2c[nH]c3ccccc23)NC(=O)[C@H](Cc2ccccc2)NC(=O)[C@H]([C@@H](C)O)NC(=O)[C@H](CCCCN)NC(=O)[C@H](C(C)C)NC1=O` [CP6-L8K-Ser] ({CH2CO}-YIVKTFWK(Ser)GSHRQC-NH2; thioether N-14) gave a Kd [1, 5] of 21 ± 4.9 nM.

For `CC[C@H](C)[C@@H]1NC(=O)[C@H](Cc2ccc(O)cc2)NC(=O)CSC[C@@H](C(N)=O)NC(=O)[C@H](CCC(N)=O)NC(=O)[C@H](CCCNC(=N)N)NC(=O)[C@H](Cc2c[nH]cn2)NC(=O)[C@H](CO)NC(=O)CNC(=O)[C@H](CCCNC(=O)[C@@H](N)CO)NC(=O)[C@H](Cc2c[nH]c3ccccc23)NC(=O)[C@H](Cc2ccccc2)NC(=O)[C@H]([C@@H](C)O)NC(=O)[C@H](CCCCN)NC(=O)[C@H](C(C)C)NC1=O` [CP6-L8O-Ser] ({CH2CO}-YIVKTFW[Orn](Ser)GSHRQC-NH2; thioether N-14), the Kd [1, 5] was 140 ± 120 nM.

With `CC[C@H](C)[C@@H]1NC(=O)[C@H](Cc2ccc(O)cc2)NC(=O)CSC[C@@H](C(N)=O)NC(=O)[C@H](CCC(N)=O)NC(=O)[C@H](CCCNC(=N)N)NC(=O)[C@H](Cc2c[nH]cn2)NC(=O)[C@H](CO)NC(=O)CNC(=O)[C@H](CC(C)C)NC(=O)[C@H](Cc2c[nH]c3ccccc23)NC(=O)[C@H](Cc2ccccc2)NC(=O)[C@H]([C@@H](C)O)NC(=O)[C@H](CCCCN)NC(=O)[C@H](C(C)C)NC1=O` [CP6] ({CH2CO}-YIVKTFWLGSHRQC-NH2; thioether N-14) the Kd [1, 6] was 66.2 ± 0.86 nM and the Kd [1, 5] was 51 ± 0.25 nM.

With `CC(C)C[C@@H]1NC(=O)[C@H](CCCNC(=N)N)NC(=O)CNC(=O)[C@H](CCCNC(=N)N)NC(=O)[C@H](CCCNC(=N)N)NC(=O)[C@@H]2CCCN2C(=O)[C@H](Cc2ccccc2)NC(=O)CNC(=O)[C@H](CCC(=O)O)NC(=O)[C@H](CC(N)=O)NC(=O)[C@H](CC(C)C)NC(=O)[C@H]([C@@H](C)O)NC(=O)[C@H](Cc2c[nH]c3ccccc23)NC(=O)[C@H](Cc2ccc(O)cc2)NC(=O)CSC[C@@H](C(N)=O)NC1=O` [CP3] ({CH2CO}-YWTLNEGFPRRGRLC-NH2; thioether N-15; N-terminus and C-terminus assumed) the KD ([1]; replicate 1) was 13500 nM, the KD ([1]; replicate 2) was 5000 nM and the KD ([1]; replicate 3) was 6630 nM.

In the case of `CC[C@H](C)[C@@H]1NC(=O)[C@H](CCCNC(=N)N)NC(=O)[C@H](Cc2ccc(O)cc2)NC(=O)CSC[C@@H](C(=O)N2CCC[C@H]2C(=O)N[C@@H](CS)C(N)=O)NC(=O)[C@H](CC(C)C)NC(=O)[C@H](C(C)C)NC(=O)[C@H](Cc2c[nH]c3ccccc23)NC(=O)[C@H](CO)NC(=O)[C@H](CCCNC(=N)N)NC(=O)[C@H](Cc2ccccc2)NC(=O)[C@H](C(C)C)NC(=O)[C@H](CCCNC(=N)N)NC(=O)[C@H]([C@@H](C)CC)NC1=O` [CP2] ({CH2CO}-YRIIRVFRSWVLCPC-NH2; thioether N-13; N-terminus and C-terminus assumed), the KD ([1]; replicate 1) is reported as 6280 nM, the KD ([1]; replicate 2) is reported as 5190 nM and the KD ([1]; replicate 3) is reported as 4690 nM.

Work on `CC(C)C[C@@H]1NC(=O)[C@H](Cc2c[nH]c3ccccc23)NC(=O)[C@H]([C@@H](C)O)NC(=O)[C@H]([C@@H](C)O)NC(=O)[C@H](CO)NC(=O)[C@H](C(C)C)NC(=O)[C@H]([C@@H](C)O)NC(=O)[C@H](Cc2ccc(O)cc2)NC(=O)CSC[C@@H](C(N)=O)NC(=O)[C@H](CCC(N)=O)NC(=O)[C@H](CCCNC(=N)N)NC(=O)[C@H](Cc2c[nH]cn2)NC(=O)[C@H]([C@@H](C)O)NC(=O)CNC1=O` [CP1] ({CH2CO}-YTVSTTWLGTHRQC-NH2; thioether N-14) yielded a Kd [1, 6] of 35.4 ± 2.11 nM.

`CC[C@H](C)[C@@H]1NC(=O)[C@H](Cc2ccc(O)cc2)NC(=O)CSC[C@@H](C(N)=O)NC(=O)[C@H](CCC(N)=O)NC(=O)[C@H](CCCNC(=N)N)NC(=O)[C@H](Cc2c[nH]cn2)NC(=O)[C@H](CO)NC(=O)CNC(=O)[C@H](CCCCNC(=O)[C@@H](N)CS)NC(=O)[C@H](Cc2c[nH]c3ccccc23)NC(=O)[C@H](Cc2ccccc2)NC(=O)[C@H]([C@@H](C)O)NC(=O)[C@H](CCCCN)NC(=O)[C@H](C(C)C)NC1=O` [CP6-L8K-Cys] ({CH2CO}-YIVKTFWK(Cys)GSHRQC-NH2; thioether N-14) gave a Kd ([1]; Fig. 3c / Supplementary Fig. 15 series, replicate 3) of 13.6 nM.

B1: cyclic peptide CP1 (peptide)
peptide: {CH2CO}-YTVSTTWLGTHRQC
modifications: thioether N-14
notes: cyclic peptide selected against ADO by RaPID mRNA display; Details of synthesis are in the supplementary methods; source: synthetic peptide (solid-phase peptide synthesis)
In the case of B1, the “IC50 of inhibition of ADO activity (oxidation of RGS5_(2-15), LCMS)” value (from here on “IC50 of inhibition of ADO activity”) [2] is reported as 1720 nM and the Kd [3] is reported as 35 nM.

B2: cyclic peptide CP2 (peptide)
peptide: {CH2CO}-YRIIRVFRSWVLCPC
modifications: thioether N-13
notes: cyclic peptide selected against ADO by RaPID mRNA display; source: synthetic peptide (solid-phase peptide synthesis)
With B2 the “IC50 of inhibition of ADO activity” value [2] was > 50000 nM and the Kd [3] was > 5000 nM.

B3: cyclic peptide CP4 (peptide)
peptide: {CH2CO}-YYYVLGTILVKRYRFC
modifications: thioether N-16
notes: as for B2
For B3, the “IC50 of inhibition of ADO activity” value [2] was > 50000 nM.

B4: cyclic peptide CP5 (peptide)
peptide: {CH2CO}-YITITSWLGTLRQC
modifications: thioether N-14
notes: as for B2
In the case of B4, the “IC50 of inhibition of ADO activity” value [2] is reported as 5680 nM and the Kd [3] is reported as 40 nM.

B5: cyclic peptide CP6 (peptide)
peptide: {CH2CO}-YIVKTFWLGSHRQC-NH2
modifications: thioether N-14
SMILES: CC[C@H](C)[C@@H]1NC(=O)[C@H](Cc2ccc(O)cc2)NC(=O)CSC[C@@H](C(N)=O)NC(=O)[C@H](CCC(N)=O)NC(=O)[C@H](CCCNC(=N)N)NC(=O)[C@H](Cc2c[nH]cn2)NC(=O)[C@H](CO)NC(=O)CNC(=O)[C@H](CC(C)C)NC(=O)[C@H](Cc2c[nH]c3ccccc23)NC(=O)[C@H](Cc2ccccc2)NC(=O)[C@H]([C@@H](C)O)NC(=O)[C@H](CCCCN)NC(=O)[C@H](C(C)C)NC1=O
notes: cyclic peptide selected against ADO by RaPID mRNA display; also called unmodified CP6; source: synthetic peptide (solid-phase peptide synthesis)
With B5 the “IC50 of inhibition of ADO activity” value [2] was 950 nM and the Kd [3] was 66 nM.

B6: cyclic peptide CP8 (peptide)
peptide: {CH2CO}-YTYRYPSILRVWARYGC
modifications: thioether N-17
notes: as for B2
With B6 the “IC50 of inhibition of ADO activity” value [2] was 1730 nM and the Kd [3] was 4.7 nM.

B7: cyclic peptide CP3 (peptide)
peptide: {CH2CO}-YWTLNEGFPRRGRLC
modifications: thioether N-15
notes: as for B2
In the case of B7, the Kd [3] is reported as > 5000 nM.

For {CH2CO}-YIVKTFW[Dap]([Gly-Ser])GSHRQC (thioether N-14) [CP6-L8d-Gly-Ser], the Kd [4] was 154 nM and 144 nM and 145 nM.

For {CH2CO}-YIVKTFW[Dap]([Lys-Ser])GSHRQC (thioether N-14) [CP6-L8d-Lys-Ser], the Kd [4] was 461 nM and 530 nM and 472 nM.

With {CH2CO}-YIVKTFW[Dap]([Phe-Ser])GSHRQC (thioether N-14) [CP6-L8d-Phe-Ser] the Kd [4] was 79.9 nM and 77.7 nM and 78.1 nM.
